The values below are quoted from earlier work in article PMC10687467.

In general, Kd refers to a measure of binding affinity in units of concentration.

Data set [1] addresses VLDL receptor (Homo sapiens) (UniProt P98155).
The next data set addresses ApoER2 (Homo sapiens) (UniProt Q14114).
Data set [2] concerns the target LDL receptor (Homo sapiens) (UniProt P01130).
The next data set deals with LRP-2 (Homo sapiens) (UniProt P98164).
LRP-2 (Homo sapiens), sequence (P98164 26-4423): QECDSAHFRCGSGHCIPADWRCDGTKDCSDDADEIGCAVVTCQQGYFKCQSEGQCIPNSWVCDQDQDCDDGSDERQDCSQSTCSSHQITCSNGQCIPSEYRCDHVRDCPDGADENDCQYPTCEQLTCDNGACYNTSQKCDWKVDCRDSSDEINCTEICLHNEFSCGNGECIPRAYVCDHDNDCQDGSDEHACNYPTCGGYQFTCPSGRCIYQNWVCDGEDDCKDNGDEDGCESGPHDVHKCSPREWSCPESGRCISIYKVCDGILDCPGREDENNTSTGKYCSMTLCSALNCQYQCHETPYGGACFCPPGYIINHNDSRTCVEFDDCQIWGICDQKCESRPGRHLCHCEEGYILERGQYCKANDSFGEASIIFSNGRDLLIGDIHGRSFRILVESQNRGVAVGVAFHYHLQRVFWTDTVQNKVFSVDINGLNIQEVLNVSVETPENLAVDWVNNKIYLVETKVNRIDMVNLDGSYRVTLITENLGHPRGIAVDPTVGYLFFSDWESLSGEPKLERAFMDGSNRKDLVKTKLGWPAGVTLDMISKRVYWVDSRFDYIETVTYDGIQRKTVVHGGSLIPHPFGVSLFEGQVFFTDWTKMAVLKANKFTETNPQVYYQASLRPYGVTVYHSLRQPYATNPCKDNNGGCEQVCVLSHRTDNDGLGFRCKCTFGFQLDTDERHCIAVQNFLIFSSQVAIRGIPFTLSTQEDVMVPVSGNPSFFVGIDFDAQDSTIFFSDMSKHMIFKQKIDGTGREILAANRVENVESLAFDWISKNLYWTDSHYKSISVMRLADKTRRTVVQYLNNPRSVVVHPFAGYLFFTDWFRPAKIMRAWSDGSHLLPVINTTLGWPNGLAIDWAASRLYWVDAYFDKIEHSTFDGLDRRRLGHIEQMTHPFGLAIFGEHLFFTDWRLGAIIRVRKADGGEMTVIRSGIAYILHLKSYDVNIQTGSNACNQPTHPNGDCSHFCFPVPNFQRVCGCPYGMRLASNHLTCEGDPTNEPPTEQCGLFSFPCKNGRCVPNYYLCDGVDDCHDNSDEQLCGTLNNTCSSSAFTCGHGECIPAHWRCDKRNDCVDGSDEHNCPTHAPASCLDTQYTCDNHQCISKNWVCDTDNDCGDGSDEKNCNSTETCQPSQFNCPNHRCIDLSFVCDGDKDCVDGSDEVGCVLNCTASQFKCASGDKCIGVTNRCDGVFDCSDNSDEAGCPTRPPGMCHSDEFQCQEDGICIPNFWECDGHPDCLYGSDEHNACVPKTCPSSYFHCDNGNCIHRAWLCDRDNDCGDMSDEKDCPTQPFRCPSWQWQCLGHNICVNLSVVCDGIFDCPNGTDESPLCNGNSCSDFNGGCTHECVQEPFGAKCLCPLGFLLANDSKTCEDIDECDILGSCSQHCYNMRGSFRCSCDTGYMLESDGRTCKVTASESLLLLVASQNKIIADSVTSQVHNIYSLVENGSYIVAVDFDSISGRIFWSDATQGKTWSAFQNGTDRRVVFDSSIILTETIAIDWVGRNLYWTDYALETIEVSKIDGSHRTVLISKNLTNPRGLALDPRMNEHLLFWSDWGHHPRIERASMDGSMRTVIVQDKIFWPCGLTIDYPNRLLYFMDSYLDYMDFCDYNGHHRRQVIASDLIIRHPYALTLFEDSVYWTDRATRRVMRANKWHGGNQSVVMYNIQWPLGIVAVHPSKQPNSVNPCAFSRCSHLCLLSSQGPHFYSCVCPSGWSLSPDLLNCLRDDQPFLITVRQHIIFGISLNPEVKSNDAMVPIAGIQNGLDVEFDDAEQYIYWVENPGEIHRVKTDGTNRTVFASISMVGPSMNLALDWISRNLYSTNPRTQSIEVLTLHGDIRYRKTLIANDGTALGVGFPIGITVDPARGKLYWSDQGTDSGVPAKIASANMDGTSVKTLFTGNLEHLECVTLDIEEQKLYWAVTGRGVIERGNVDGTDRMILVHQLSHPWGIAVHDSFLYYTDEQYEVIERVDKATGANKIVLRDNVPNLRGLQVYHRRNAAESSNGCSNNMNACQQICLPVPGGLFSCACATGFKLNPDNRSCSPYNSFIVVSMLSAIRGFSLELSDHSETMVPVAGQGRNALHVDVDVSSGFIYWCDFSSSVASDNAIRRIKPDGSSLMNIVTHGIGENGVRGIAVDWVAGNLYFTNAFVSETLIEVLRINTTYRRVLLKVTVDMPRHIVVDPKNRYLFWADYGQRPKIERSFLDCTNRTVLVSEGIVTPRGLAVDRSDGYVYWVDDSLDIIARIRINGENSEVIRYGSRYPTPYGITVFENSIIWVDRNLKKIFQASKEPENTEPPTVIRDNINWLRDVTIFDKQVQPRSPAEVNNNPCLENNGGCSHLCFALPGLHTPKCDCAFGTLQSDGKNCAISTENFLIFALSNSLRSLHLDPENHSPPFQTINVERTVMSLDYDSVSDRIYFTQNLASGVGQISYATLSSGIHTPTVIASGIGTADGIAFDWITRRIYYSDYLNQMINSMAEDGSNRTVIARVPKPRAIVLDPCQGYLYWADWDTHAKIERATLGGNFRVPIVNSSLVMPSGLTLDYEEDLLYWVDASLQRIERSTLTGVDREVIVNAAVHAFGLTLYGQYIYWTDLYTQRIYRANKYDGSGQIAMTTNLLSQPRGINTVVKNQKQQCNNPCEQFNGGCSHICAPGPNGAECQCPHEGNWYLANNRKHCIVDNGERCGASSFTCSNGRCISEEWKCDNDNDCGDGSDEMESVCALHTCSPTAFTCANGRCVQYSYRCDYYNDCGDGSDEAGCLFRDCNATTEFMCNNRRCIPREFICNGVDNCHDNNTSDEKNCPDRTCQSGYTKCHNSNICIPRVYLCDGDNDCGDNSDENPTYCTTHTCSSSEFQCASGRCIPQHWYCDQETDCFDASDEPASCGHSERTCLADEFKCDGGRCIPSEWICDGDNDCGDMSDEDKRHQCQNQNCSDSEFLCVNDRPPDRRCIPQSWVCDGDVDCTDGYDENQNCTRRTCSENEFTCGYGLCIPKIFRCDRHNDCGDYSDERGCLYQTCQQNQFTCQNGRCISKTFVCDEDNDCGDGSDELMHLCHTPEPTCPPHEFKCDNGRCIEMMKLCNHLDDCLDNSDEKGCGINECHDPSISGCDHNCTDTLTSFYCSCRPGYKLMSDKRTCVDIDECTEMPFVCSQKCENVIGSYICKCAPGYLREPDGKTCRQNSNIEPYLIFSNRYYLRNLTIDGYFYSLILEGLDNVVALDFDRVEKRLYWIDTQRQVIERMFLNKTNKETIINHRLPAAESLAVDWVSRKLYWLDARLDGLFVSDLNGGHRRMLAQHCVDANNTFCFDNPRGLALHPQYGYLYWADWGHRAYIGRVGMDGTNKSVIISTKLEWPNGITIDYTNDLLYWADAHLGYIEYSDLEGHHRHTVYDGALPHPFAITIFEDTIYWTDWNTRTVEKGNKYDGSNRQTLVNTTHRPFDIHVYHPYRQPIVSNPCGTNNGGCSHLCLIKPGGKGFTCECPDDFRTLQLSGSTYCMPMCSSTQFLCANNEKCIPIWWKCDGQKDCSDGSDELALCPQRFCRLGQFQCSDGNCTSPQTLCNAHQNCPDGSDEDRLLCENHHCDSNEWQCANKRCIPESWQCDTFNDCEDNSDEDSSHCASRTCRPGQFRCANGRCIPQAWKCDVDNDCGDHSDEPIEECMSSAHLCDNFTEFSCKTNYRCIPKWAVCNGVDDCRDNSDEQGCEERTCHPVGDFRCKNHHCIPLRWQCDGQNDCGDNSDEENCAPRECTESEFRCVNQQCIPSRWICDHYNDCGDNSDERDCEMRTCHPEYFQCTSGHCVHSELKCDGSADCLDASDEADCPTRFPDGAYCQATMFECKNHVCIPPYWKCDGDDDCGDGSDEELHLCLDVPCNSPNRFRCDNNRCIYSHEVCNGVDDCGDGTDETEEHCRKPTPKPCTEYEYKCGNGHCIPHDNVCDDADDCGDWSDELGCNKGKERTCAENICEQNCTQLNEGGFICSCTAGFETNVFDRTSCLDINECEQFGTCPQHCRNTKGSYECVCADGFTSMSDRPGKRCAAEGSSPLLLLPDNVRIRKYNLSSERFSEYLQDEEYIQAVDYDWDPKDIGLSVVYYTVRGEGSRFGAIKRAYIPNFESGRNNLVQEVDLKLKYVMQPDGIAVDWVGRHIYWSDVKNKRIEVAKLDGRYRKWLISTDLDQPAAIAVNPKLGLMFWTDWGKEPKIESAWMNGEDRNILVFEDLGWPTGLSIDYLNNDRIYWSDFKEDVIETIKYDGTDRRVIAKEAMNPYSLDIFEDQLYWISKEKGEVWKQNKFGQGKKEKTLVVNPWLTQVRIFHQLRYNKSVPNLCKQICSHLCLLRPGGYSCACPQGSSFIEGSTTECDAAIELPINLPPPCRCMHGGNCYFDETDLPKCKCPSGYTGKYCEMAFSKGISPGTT

LRPAP1, sequence (P30533 35-357): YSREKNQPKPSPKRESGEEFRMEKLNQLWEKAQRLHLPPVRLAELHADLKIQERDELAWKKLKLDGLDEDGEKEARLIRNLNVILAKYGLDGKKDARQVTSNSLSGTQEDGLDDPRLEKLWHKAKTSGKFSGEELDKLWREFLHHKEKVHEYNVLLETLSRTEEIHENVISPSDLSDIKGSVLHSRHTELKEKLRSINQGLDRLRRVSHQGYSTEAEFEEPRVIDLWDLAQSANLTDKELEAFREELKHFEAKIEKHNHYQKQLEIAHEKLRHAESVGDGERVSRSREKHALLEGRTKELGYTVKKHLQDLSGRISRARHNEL

On to LRPAP1 (from UniProt P30533), for which the Kd in data set [1] was 0.7 nM; with ApoER2 (Homo sapiens) it was 5 nM; in data set [2], 250 nM; in the data set with LRP-2 (Homo sapiens), 8 nM.
